This is an account of results in patent US20190211081A1 (Chugai, published 2019).

Test [1] addresses T1, soluble human FcRn (complex of FcRn and beta2-microglobulin) (human, UniProt P55899 24-290; P61769 21-119).
T1 construct: Expressed constructs contain the signal regions (FcRn Met1-Leu290; beta2-microglobulin Met1-Met119); Secreted from HEK293H cells and purified; also called hFcRn
In words: Biacore 3000, antibody captured on Protein L or rabbit anti-human kappa antibody, human FcRn as analyte, pH 6.0, steady state affinity.
Description: (§1) The binding to human FcRn was assessed using Biacore 3000. An antibody was bound to Protein L or rabbit anti-human IgG Kappa chain antibody immobilized onto a sensor chip, human FcRn was added as an analyte for interaction with the antibody, and the affinity (KD) was calculated from the amount of bound human FcRn. Specifically, Protein L or rabbit anti-human IgG Kappa chain antibody was immobilized onto sensor chip CM5 (BIACORE) by the amine coupling method using 50 mM Na-phosphate buffer (pH 6.0) containing 150 mM NaCl as the running buffer. […] Human FcRn was then injected and the binding of the human FcRn to antibody was assessed.
(§2) The obtained sensorgram was used to calculate the amount of hFcRn bound to the antibody immediately before the end of human FcRn injection. The affinity of the antibody for human FcRn was calculated by fitting with the steady state affinity method.

Test [2] deals with T1, soluble human FcRn (complex of FcRn and …). In words: Biacore 3000, antibody captured, human FcRn as analyte, pH 6.0.
Description: as §1, §2
Test [3] shares this target. In words: Biacore 3000, antibody captured, human FcRn as analyte, pH 6.0, steady state affinity.
Description: as §1
The affinity was computed using BIAevaluation Software. The obtained sensorgram was used to calculate the amount of hFcRn bound to the antibody immediately before the end of human FcRn injection. The affinity of the antibody for human FcRn was calculated by fitting with the steady state affinity method.
The resulting antibodies were assessed for their human FcRn-binding activity by the method described above.
Test [4] shares this target. In words: Biacore T100, human FcRn immobilized on CM4 chip, antibody as analyte (divalent avidity), pH 6.0, 25 C, KD from ka and kd.
Description: Then, the present inventors assessed in this Example the binding of IgG to FcRn with divalent avidity by immobilizing human FcRn onto a sensor chip and injecting IgG as an analyte to more closely mimic the in vivo case.
First, about 2,000 RU of human FcRn was immobilized onto sensor chip CM4 (GE Healthcare) by the amino coupling method. Reagents used in the amino coupling were: ethanol amine (GE Healthcare), 50 mM NaOH solution (GE Healthcare), NHS (GE Healthcare), EDC (GE Healthcare). HBS-EP+ solution (10×HBS-EP+ solution (GE Healthcare) was used after dilution) was used as the mobile phase. Then, antibodies were each injected as an analyte into the sensor chip immobilized with human FcRn for three minutes to observe the binding of FcRn to the antibodies. After this observation, the mobile phase was injected for five minutes to assess the dissociation of each antibody variants from FcRn. All measurements were carried out at 25° C. The mobile phase used was 10 mM Cit (pH 6.0)/150 mM NaCl/0.05% Tween20.
From the obtained sensorgrams, the association rate constant ka (1/Ms) and dissociation rate constant kd (1/s) were calculated for the three minutes of binding phase using Biacore T100 Evaluation Software (GE Healthcare). The dissociation constant KD (M) was determined based on these values.

T1 sequence (P55899 24-290 limits assumed, chain 1 of 2): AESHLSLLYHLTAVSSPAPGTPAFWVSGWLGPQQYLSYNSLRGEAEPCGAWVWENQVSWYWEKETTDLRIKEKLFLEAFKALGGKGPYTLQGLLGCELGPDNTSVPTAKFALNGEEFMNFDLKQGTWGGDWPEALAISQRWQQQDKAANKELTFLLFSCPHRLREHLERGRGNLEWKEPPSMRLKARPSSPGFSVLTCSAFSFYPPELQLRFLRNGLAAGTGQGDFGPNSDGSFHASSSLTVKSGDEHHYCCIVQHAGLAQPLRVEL
T1 sequence (P61769 21-119 limits assumed, chain 2 of 2): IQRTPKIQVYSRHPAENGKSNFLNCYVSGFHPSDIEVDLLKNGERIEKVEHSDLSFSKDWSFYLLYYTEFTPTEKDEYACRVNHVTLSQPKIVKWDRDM

B1: IL6R H0-M58/L0-k0 (antibody, IgG2)
heavy: QVQLQESGPGLVRPSQTLSLTCTVSGYSITSDHAWSWVRQPPGRGLEWIGYISYSGITTYNPSLKSRVTMLRDTSKNQFSLRLSSVTAADTAVYYCARSLARTTAMDYWGQGSLVTVSSASTKGPSVFPLAPSSKSTSGGTAALGCLVKDYFPEPVTVSWNSGALTSGVHTFPAVLQSSGLYSLSSVVTVPSSNFGTQTYTCNVDHKPSNTKVDKTVERKSCVECPPCPAPPVAGPSVFLFPPKPKDTLMISRTPEVTCVVVDVSQEDPEVQFNWYVDGVEVHNAKTKPREEQFNSTFRVVSVLTVVHQDWLNGKEYKCKVSNKGLPAPIEKTISKTKGQPREPQVYTLPPSQEEMTKNQVSLTCLVKGFYPSDIAVEWESNGQPENNYKTTPPMLDSDGSFFLYSKLTVDKSRWQEGNVFSCSVMHEALHNHYTQKSLSLSP
light: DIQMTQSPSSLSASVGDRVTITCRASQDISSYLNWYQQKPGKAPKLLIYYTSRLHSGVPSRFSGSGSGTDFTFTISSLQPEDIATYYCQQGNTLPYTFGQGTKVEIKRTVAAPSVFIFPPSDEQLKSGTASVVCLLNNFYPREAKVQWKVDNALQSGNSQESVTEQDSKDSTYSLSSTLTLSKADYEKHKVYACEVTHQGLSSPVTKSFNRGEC
notes: L-chain constant region k0; also called M58-k0 (anti-IL-6 receptor antibody)
In the case of B1, the Kd stood at 1030 nM in test [1], 1030 nM in test [3] and 3.85 nM in test [4]. The “fold increase of binding compared to IL6R H0-IgG1/L0-k0” value in test [2] is approximately 1.4 times.

B2: IL6R H0-M66/L0-k3 (antibody)
heavy: QVQLQESGPGLVRPSQTLSLTCTVSGYSITSDHAWSWVRQPPGRGLEWIGYISYSGITTYNPSLKSRVTMLRDTSKNQFSLRLSSVTAADTAVYYCARSLARTTAMDYWGQGSLVTVSSASTKGPSVFPLAPSSKSTSGGTAALGCLVKDYFPEPVTVSWNSGALTSGVHTFPAVLQSSGLYSLSSVVTVPSSNFGTQTYTCNVDHKPSNTKVDKTVERKCSVECPPCPAPPVAGPSVFLFPPKPKDTLMISRTPEVTCVVVDVSQEDPEVQFNWYVDGVEVHNAKTKPREEQFNSTFRVVSVLTVVHQDWLNGKEYKCKVSNKGLPAPIEKTISKTKGQPREPQVYTLPPSQEEMTKNQVSLTCLVKGFYPSDIAVEWESNGQPENNYKTTPPMLDSDGSFFLYSKLTVDKSRWQEGNVFSCSVMHEALHNHYTQKSLSLSP
light: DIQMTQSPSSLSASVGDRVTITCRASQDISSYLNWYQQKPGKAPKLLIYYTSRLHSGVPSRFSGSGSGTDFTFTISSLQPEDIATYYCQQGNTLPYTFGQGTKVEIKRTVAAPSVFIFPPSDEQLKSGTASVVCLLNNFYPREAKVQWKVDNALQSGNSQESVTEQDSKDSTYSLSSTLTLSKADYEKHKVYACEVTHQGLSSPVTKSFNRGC
notes: also called M66-k3
B2: the Kd in test [4] is 3.26 nM.

B3: IL6R H0-M66/L0-k0 (antibody)
heavy: QVQLQESGPGLVRPSQTLSLTCTVSGYSITSDHAWSWVRQPPGRGLEWIGYISYSGITTYNPSLKSRVTMLRDTSKNQFSLRLSSVTAADTAVYYCARSLARTTAMDYWGQGSLVTVSSASTKGPSVFPLAPSSKSTSGGTAALGCLVKDYFPEPVTVSWNSGALTSGVHTFPAVLQSSGLYSLSSVVTVPSSNFGTQTYTCNVDHKPSNTKVDKTVERKCSVECPPCPAPPVAGPSVFLFPPKPKDTLMISRTPEVTCVVVDVSQEDPEVQFNWYVDGVEVHNAKTKPREEQFNSTFRVVSVLTVVHQDWLNGKEYKCKVSNKGLPAPIEKTISKTKGQPREPQVYTLPPSQEEMTKNQVSLTCLVKGFYPSDIAVEWESNGQPENNYKTTPPMLDSDGSFFLYSKLTVDKSRWQEGNVFSCSVMHEALHNHYTQKSLSLSP
light: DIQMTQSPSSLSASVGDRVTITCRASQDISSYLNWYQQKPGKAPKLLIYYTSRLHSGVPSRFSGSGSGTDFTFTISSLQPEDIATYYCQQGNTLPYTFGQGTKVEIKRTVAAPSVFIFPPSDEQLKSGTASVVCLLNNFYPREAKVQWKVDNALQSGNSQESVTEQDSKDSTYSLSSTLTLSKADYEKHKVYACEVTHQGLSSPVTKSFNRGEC
notes: L-chain constant region k0; also called M66-k0
The molecule B3 registered a Kd in test [4] of 3.54 nM.

B4: IL31R H0-IgG1/L0-k0 (antibody)
heavy: not shown
light: DIQMTQSPSSLSASVGDRVTITCRTSENIYSFLAWYQQKPGKAPKLLIYNAKTLAKGVPSRFSGSGSGTDFTLTISSLQPEDFATYYCQHHYESPLTFGGGTKVEIKRTVAAPSVFIFPPSDEQLKSGTASVVCLLNNFYPREAKVQWKVDNALQSGNSQESVTEQDSKDSTYSLSSTLTLSKADYEKHKVYACEVTHQGLSSPVTKSFNRGEC
notes: also called anti-IL-31 receptor antibody, IgG1-k0
Regarding B4, the Kd in test [3] was 1070 nM.

B5: IL31R H0-M58/L0-k0 (antibody)
heavy: QVQLVQSGAEVKKPGASVKVSCKASGYTFTGYIMNWVRQAPGQGLEWMGLINPYNGGTSYNQKFKGRVTITADESTSTAYMELSSLRSEDTAVYYCARDGYDDGPYTMDYWGQGTLVTVSSASTKGPSVFPLAPSSKSTSGGTAALGCLVKDYFPEPVTVSWNSGALTSGVHTFPAVLQSSGLYSLSSVVTVPSSNFGTQTYTCNVDHKPSNTKVDKTVERKSCVECPPCPAPPVAGPSVFLFPPKPKDTLMISRTPEVTCVVVDVSQEDPEVQFNWYVDGVEVHNAKTKPREEQFNSTFRVVSVLTVVHQDWLNGKEYKCKVSNKGLPAPIEKTISKTKGQPREPQVYTLPPSQEEMTKNQVSLTCLVKGFYPSDIAVEWESNGQPENNYKTTPPMLDSDGSFFLYSKLTVDKSRWQEGNVFSCSVMHEALHNHYTQKSLSLSP
light: DIQMTQSPSSLSASVGDRVTITCRTSENIYSFLAWYQQKPGKAPKLLIYNAKTLAKGVPSRFSGSGSGTDFTLTISSLQPEDFATYYCQHHYESPLTFGGGTKVEIKRTVAAPSVFIFPPSDEQLKSGTASVVCLLNNFYPREAKVQWKVDNALQSGNSQESVTEQDSKDSTYSLSSTLTLSKADYEKHKVYACEVTHQGLSSPVTKSFNRGEC
notes: also called anti-IL-31 receptor antibody, M58-k0
B5: the Kd in test [3] turned out to be 910 nM.
